Data as given in patent US20130309233A1 (SORRENTO THERAPEUTICS, published 2013).
Like-named read-outs stand apart in the source and are kept apart here. Each block holds one binder with its values, some of them ahead of it.

Key:
[1] = target: T1, EGFR expressed on the surface of cells (A431, A549, MCF7 and other EGFR-expressing cell lines) (human, UniProt P00533 25-1210); experiment: cell-based or functional assay
[2] = target: T1, EGFR expressed on the surface of cells …; experiment: cell-based or functional assay; remark: listed apart in the source
[3] = target: T1, EGFR expressed on the surface of cells …; experiment: flow cytometry on A431 cells, 12-point titration, PE anti-human IgG
Description: (§1) In this example, the experimental procedure was as follows: 50,000 A431 cells were aliquoted into the wells of a 96-well, v-bottom plate in 100 ul FACS Buffer (PBS+2% FBS). […] Cells were spun down, washed 1× with FACS Buffer, and then resuspended in 25 μl of antibody solution in triplicate. […] Cells were further incubated for 0.5 hr and then washed 1× with FACS Buffer. Cells were resuspended in 25 ul FACS Buffer and the median fluorescence intensity in the FL2-H channel was determined using the Intellicyt HTFC flow cytometer.
(§2) Data was analyzed and plotted in Graph Pad Prizm using non-linear regression fit. Data points are shown as the median fluorescence intensity (MFI) of positively labeled cells+/−Std Error.

[4] = target: T1, EGFR expressed on the surface of cells …; experiment: flow cytometry on A431 cells, blocking of biotinylated human EGF binding (competitor: Human EGF Biotinylated Fluorokine)
Description: Cells were finally resuspended in 25 μl FACS Buffer and the median fluorescence intensity in the FL1-H channel was determined using an Intellicyt HTFC flow cytometer. […] Data was analyzed and plotted in Graph Pad Prizm using non-linear regression fit. Data points are shown as the median fluorescence intensity (MFI)+/−Std Error.

[5] = target: T1, EGFR expressed on the surface of cells …; experiment: cell-based or functional assay; remark: listed apart in the source
[6] = target: T1, EGFR expressed on the surface of cells …; experiment: flow cytometry on A431 cells (FIG. 2 legend; the same experiment as paragraph 158, printed with another rounding); A431 cells; FIG. 2 legend
Description: as §1, §2

ADCC Reporter Bioassay (luciferase, RLU) on A431 target cells, EC50 [1]: 0.2 nM | IC50 (M), inhibition of EGF-stimulated EGFR auto-phosphorylation in A549 cells [2]: 1.3e-09 M | EC50 [3]: 0.28 nM | IC50 [4]: 1.35 nM
B1: D2 (antibody, IgG1, V domains shown)
VH: EVQLVESGGGVVQPGRSLRLSCAASGFIFNHYAMHWVRQAPGKGLEWVAHISSDGSYKFYADSVKGRFTVSRDNSDNTVYLQMNSLGPEDTAVYHCARFTEVLYYGADYWGQGTLVTVSS
VL: QSVLTQPPSVSEAPRQRVSISCSGSSSNIGNNAVNWYQQLPGKAPKLLIYFDDLLPSGVSDRFSGSKSGTSASLAISGLQSEDEADYYCAAWDDSLKGYVFGTGTKVTVL
notes: also called EGFR-D2; Clone D2

ADCC Reporter Bioassay (luciferase, RLU) on A431 target cells, EC50 [1]: 0.06 nM | decrease in EGF stimulated receptor phosphorylation assay in EGFR positive cells (A431) [1]: ~10% | IC50 (M), inhibition of EGF-stimulated EGFR auto-phosphorylation in A549 cells [5]: 1.1e-09 M | EC50 [3]: 1.3 nM | IC50 [4]: 2.06 nM | EC50 [6]: 1.29 nM
B2: A6 (antibody, IgG1, V domains shown)
VH: QVQLVQSGAEVKKPGSSVKVSCKASGGTFRNHAFSWVRQAPGQGLEWMGWISAYNGYTHYAEKLQGRVTMTTDTSTSTAYMELRSLRSDDTAVYYCARVSASYNSDWSLHYYYGMDVWGQGTTVTVSS
VL: QSVLTQPPSVSAAPGQEVTISCSGSNSNIGNNYVSWYQQLPGTAPKLLIYDNNERPSGIPDRFSGSKSGTSATLGITGLQTGDEADYYCGTWDSSLSAGVFGGGTKLTVL
notes: also called EGFR-A6; Clone A6
